B1: MYBL2 (parent)
chain: FPNRTDQQCQYRWLRVLNPDLVKG

Variants of: B1
Experiment: protein stability index of a GFP-peptide fusion (GPS, HEK-293T) (PSI 1-6); higher = more stable
Conditions: c terminus: a fixed tail appended
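Note: lentivirally expressed fusions sorted by FACS into six bins by GFP to DsRed ratio, PSI derived from sequencing read proportions per bin multiplied by bin number.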

Protein stability index: each site, then its substitutions
W13: I 1.91, L 2.08, T 2.52, D 2.98, V 2.39, E 3.26, M 2.27, A 2.59, N 2.81, Y 2.26, F 2.75, S 3.03, Q 3.1, H 2.56, K 3.05, P 3.71, C 2.01, G 3.56
P19: H 2.22, M 2.2, G 2.26, K 2.36, L 1.76, R 1.84, S 2.06, D 1.97, E 1.85, A 1.81, T 1.67, C 2.5, V 1.94, N 2.01, I 2.11, F 1.45, Q 1.94, Y 2.02, W 1.63
L14: H 2.67, W 1.4, I 2.03, M 2.12, S 2.35, F 1.51, E 2.28, P 2.05, D 2.22, A 3.17, G 1.48, C 2.02, Q 2.08, Y 1.83, T 1.64, V 2.21, R 2.44, N 2.46, K 2.88
Q10: H 2.35, W 2.4, R 1.52, N 1.76, Y 1.79, T 1.93, M 1.47, P 2.18, F 1.75, A 1.45, L 2.34, K 1.88, C 2.83, E 2.23, V 1.81, S 2.48, I 1.79, D 2.04, G 1.48
D20: N 2.43, W 2.27, F 1.68, C 1.83, Q 1.78, V 1.14, G 1.6, P 2.35, K 2.06, S 2.24, H 2.06, T 1.54, A 2.13, Y 1.76, L 1.7, E 2.03, R 2.22, I 1.74, M 1.89
N18: W 2.05, K 1.68, L 2.74, P 1.98, S 2.17, D 2.09, I 1.09, V 1.61, R 3.02, Q 1.97, M 1.75, F 2.73, E 2.16, A 2.17, G 1.6, C 2.8, T 2.19, Y 2.16
Q8: H 2.37, D 2.09, A 1.38, Y 1.88, S 1.83, L 1.68, R 1.96, P 2.09, C 1.42, V 2.05, T 1.82, I 2.01, F 1.71, W 1.97, M 1.83, K 1.97, N 2, G 1.34, E 2.01
Q7: E 2.15, F 1.67, R 2.63, D 2.3, H 2.05, L 1.69, T 1.72, C 1.94, K 1.8, N 2.38, S 1.82, I 2.07, W 2.29, V 1.85, P 2.17, M 1.96, G 2.96, A 2.53, Y 1.61
G24: C 1.89, A 1.41, D 1.94, K 2.01, F 1.85, E 2.02, I 1.43, L 2.35, M 2.18, H 1.41
V16: R 1.56, S 2.2, K 2.02, P 2.72, A 1.87, N 2.05, F 1.81, I 1.57, Y 1.72, T 2.13, H 2.39, M 1.78, Q 2.46, W 2.57, E 2.44, C 1.97, L 1.77, D 2.99, G 2.12
L21: K 2.01, G 1.66, F 2.26, E 2.43, D 2.12, Q 2.08, M 2.27, H 1.48, A 1.88, T 2.26, R 2.31, I 2.85, C 2.18, S 2.17, W 1.91, V 2.26, P 2.83, N 2.37, Y 1.98
R12: W 1.95, K 2.25, P 1.96, M 1.96, D 1.19, N 1.69, A 2.75, S 2.25, G 1.59, C 2.55, F 2.25, I 1.97, Y 2.46, T 1.66, H 3.76, Q 2.21, L 1.45, E 1.74
D6: Y 1.61, W 1.75, S 1.89, V 1.98, T 1.84
Y11: N 2.39, H 2.24, S 2.11, V 2.02, M 2.12, C 2.29, I 2.04, F 1.95, E 3.11, G 2.31, K 2.23, A 2.16, R 1.97, W 1.66, P 2.13, D 2.91, T 2.36, L 2.1, Q 1.85
R15: D 2.48, S 2, K 1.31, H 2.31, C 2.19, I 2.25, F 2.36, T 1.45, E 2.44, Y 2.14, M 1, Q 2.15, A 1.45, P 1.92, W 2.96, V 2.2, G 2.18, L 1.98, N 1.52
L17: Q 2.45, E 2.32, D 1.91, N 2.28, G 2.45, C 1.79, Y 1.34, A 2.41, M 1.95, K 2.47, P 2.56, T 1.63, R 2.28, F 1.41, V 2.04, S 2.78, I 2.01, H 1.6
V22: L 2.21, D 2.02, S 2.25, K 1.64, A 1.71, H 2.74, Y 2.01, T 1.95, Q 1.54, R 1.66, C 1.79, F 1.59, M 2.08, W 2.11, P 1.83, I 2.04, E 1.55, G 2, N 2.01
K23: V 1.4, P 2.06, Y 1.38, I 1.95, S 1.26, N 2.11, F 2.47, H 1.7, E 1.89, M 1.5, T 1.59, L 1.64, C 3.33, D 1.97, W 1.27, R 2.21, G 1.8, A 1.22, Q 2.1
C9: Y 2.49, N 2.18, D 2.19, F 2.38, K 2.76, P 2.5, V 2.05, M 2.45, A 2, Q 2.24, I 2.16, S 2.45, E 1.86, R 2.85, T 2.9, H 2.88, W 2.51, L 2.26, G 1.97
